Here are results for two molecules from PMC10989685 (2024).

In one assay the target is Neurexin2α (UniProt E9Q7X7). As to the kind of experiment: SPR.
Assay [1] deals with Recombinant human His-tagged IgSF21 protein (R&D Systems #10330-S2) (human, UniProt Q96ID5 25-444). As to the kind of experiment: SPR.

Neurexin2α, sequence (E9Q7X7 29-1634): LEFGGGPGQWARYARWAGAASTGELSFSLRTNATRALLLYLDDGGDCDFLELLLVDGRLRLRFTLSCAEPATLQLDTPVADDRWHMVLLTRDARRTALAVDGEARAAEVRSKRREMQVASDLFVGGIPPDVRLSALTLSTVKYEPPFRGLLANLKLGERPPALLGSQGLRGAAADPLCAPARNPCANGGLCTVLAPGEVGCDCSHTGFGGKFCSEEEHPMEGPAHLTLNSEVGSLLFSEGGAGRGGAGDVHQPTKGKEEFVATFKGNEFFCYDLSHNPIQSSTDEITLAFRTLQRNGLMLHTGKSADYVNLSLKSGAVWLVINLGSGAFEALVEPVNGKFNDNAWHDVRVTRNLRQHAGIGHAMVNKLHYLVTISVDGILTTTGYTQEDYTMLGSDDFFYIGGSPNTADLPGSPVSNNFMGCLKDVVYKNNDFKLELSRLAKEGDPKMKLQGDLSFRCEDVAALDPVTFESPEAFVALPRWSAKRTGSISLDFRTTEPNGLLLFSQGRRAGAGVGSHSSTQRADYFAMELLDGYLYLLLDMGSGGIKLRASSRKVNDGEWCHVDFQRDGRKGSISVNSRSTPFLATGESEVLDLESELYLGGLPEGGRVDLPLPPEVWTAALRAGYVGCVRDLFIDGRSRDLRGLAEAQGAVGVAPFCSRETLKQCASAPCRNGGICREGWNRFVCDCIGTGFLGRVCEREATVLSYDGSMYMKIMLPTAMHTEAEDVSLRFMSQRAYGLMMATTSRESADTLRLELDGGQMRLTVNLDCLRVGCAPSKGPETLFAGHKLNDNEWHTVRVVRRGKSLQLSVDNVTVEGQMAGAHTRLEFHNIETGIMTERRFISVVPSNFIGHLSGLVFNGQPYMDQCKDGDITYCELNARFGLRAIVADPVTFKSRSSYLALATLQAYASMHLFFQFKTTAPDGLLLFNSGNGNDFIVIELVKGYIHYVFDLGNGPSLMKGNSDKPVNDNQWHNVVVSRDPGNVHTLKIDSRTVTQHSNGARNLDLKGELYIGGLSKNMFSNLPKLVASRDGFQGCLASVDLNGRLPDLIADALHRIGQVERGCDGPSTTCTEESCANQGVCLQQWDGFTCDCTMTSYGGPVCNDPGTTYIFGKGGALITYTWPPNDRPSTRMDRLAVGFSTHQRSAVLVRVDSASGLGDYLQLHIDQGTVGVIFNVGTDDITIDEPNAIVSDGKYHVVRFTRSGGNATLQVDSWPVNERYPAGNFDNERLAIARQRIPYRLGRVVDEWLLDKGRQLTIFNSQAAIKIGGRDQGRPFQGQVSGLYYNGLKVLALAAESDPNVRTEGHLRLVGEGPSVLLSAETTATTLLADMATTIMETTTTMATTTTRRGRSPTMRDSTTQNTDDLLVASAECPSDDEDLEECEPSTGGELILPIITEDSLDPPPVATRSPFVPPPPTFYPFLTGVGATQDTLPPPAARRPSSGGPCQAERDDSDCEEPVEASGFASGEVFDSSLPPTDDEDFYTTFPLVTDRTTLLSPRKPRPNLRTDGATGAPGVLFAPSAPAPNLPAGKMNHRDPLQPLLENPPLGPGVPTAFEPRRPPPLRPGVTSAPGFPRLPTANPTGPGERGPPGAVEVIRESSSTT

B1: IgSF21 (protein)
chain: YLTVNIEPLPPVVAGDAVTLKCNFKTDGRMREIVWYRVTDGGTIKQKIFTFDAMFSTNYSHMENYRKREDLVYQSTVRLPEVRISDNGPYECHVGIYDRATREKVVLASGNIFLNVMAPPTSIEVVAADSPAPFSRYQAQNFTLVCIVSGGKPAPMVYFKRDGEPIDAVPLTELPAASSGPVQDSRPFRSLLHRDVDDTKMQKSLSLLDTEYRAGRPYTERPARSLTQDPSLFVQPTTENIPETVVSREFPRWVHSAEPVYFLRHSRTPGSDGTVEVRALLTWTLNPQIDNEALFSCEVKHPALSMPMQAEVTLVAPKGPKIMMTPSRARVGDTVRILVHGFQNEVFPEPMFTWTRVGSRLLDGSAEFDGKELVLERVPAELNGSMYRCTAQNPLGSTDTHTRLIVFENPNIPRGTEDSRGSASGPAGVRLTLVLALTVILELT
B1: the Kd with Neurexin2α is 5.67 nM.

B2: Recombinant human Fc-tagged NRXN2α (human Nrxn2α-Fc, R&D Systems #6636-NX) (Fc fusion)
chain: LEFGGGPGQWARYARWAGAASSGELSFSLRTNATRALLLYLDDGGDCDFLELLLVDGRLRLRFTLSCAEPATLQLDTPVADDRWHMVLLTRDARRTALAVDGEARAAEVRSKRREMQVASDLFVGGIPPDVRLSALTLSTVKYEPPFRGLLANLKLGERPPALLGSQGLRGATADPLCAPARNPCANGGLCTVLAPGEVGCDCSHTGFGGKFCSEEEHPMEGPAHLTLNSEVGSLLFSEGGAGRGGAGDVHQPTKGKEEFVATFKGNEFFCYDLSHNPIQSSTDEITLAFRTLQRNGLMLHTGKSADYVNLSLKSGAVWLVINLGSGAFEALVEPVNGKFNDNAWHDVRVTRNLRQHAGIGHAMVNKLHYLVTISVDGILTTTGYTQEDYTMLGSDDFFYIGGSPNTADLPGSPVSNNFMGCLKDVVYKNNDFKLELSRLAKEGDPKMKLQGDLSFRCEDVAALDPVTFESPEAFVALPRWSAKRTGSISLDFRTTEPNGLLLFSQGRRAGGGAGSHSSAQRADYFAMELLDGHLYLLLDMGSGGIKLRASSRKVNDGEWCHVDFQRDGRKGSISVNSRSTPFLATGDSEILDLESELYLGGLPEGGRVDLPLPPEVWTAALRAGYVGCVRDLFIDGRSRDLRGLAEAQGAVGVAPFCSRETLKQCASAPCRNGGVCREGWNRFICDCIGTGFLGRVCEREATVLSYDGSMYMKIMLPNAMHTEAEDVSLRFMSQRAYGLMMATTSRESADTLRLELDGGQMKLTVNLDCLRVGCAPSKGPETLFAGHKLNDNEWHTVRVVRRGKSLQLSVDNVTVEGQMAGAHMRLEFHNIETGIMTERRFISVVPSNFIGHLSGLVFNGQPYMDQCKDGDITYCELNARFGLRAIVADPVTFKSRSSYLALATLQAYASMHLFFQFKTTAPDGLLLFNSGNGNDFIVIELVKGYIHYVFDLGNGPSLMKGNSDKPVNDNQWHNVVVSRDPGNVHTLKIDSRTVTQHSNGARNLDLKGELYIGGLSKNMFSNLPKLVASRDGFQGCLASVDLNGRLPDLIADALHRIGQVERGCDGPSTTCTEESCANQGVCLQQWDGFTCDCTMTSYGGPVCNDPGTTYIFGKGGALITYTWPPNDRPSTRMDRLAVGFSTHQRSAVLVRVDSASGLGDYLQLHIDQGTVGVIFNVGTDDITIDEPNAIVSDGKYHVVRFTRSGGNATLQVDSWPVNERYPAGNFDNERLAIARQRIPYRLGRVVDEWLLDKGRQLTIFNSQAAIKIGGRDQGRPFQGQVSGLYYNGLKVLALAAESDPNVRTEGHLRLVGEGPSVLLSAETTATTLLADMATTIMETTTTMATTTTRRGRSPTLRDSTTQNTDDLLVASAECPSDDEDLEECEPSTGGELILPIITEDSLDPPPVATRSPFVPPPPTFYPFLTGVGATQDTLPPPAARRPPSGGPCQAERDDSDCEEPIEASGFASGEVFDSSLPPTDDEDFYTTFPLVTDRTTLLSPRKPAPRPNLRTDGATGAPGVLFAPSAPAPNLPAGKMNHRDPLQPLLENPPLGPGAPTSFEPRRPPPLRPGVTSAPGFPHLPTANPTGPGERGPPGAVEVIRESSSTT
On to B2, for which the koff in assay [1] is 0.00101 s⁻¹.
